Measured values reported in the supplement of paper PMC9112550, “Optimization of the antimicrobial peptide Bac7 by deep mutational scanning” (BMC Biology, 2022).

System: Escherichia coli TOP10
Test: shrunken log2 fold change of peptide-encoding DNA abundance (4.5 h post-induction vs induction); higher = less antimicrobial activity (less host growth inhibition)
Conditions: time post-induction: 4.5 h; library: site-saturation at positions 5, 18, 19, 20
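Also: peptides expressed intracellularly from a pBAD plasmid library in pooled LB shake-flask culture, induced with 0.3% L-arabinose, DNA abundance read by NGS, three biological replicates, DESeq2 with apeglm shrinkage.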

Sequence	shrunken log2 fold change
RRIRRRPPRLPRPRPRPIWRPRP	0.181
RRIRKRPPRLPRPRPRPLFDPRP	-0.0965
RRIRHRPPRLPRPRPRPWPGPRP	-0.327
RRIRNRPPRLPRPRPRPSEFPRP	-0.109
RRIRPRPPRLPRPRPRPIDGPRP	0.023
RRIRSRPPRLPRPRPRPPFHPRP	-0.0308
RRIRIRPPRLPRPRPRPSQQPRP	-0.11
RRIRMRPPRLPRPRPRPPCAPRP	2.14
RRIRYRPPRLPRPRPRPMGEPRP	0.0325
RRIRQRPPRLPRPRPRPILLPRP	-0.0814
RRIRHRPPRLPRPRPRPDIMPRP	-0.261
RRIRCRPPRLPRPRPRPMIYPRP	-0.144
RRIRSRPPRLPRPRPRPAYIPRP	-0.0884
RRIRCRPPRLPRPRPRPAETPRP	-0.035
RRIRTRPPRLPRPRPRPMSDPRP	-0.0819
RRIRKRPPRLPRPRPRPRQTPRP	0.0644
RRIRDRPPRLPRPRPRPGGKPRP	-0.0179
RRIRQRPPRLPRPRPRPQQEPRP	0.0811
RRIRNRPPRLPRPRPRPACIPRP	0.0248
RRIRARPPRLPRPRPRPVCRPRP	0.505
RRIRRRPPRLPRPRPRPRNPPRP	0.345
RRIRCRPPRLPRPRPRPQINPRP	-0.685
RRIRKRPPRLPRPRPRPDAPPRP	1.46
RRIRLRPPRLPRPRPRPYTNPRP	-0.6
RRIRWRPPRLPRPRPRPWESPRP	-0.0449

Sequence	shrunken log2 fold change
RRIRGRPPRLPRPRPRPSTLPRP	0.152
RRIRQRPPRLPRPRPRPLCGPRP	0.0478
RRIRERPPRLPRPRPRPERIPRP	-0.0271
RRIRHRPPRLPRPRPRPDSCPRP	-0.164
RRIRFRPPRLPRPRPRPRLHPRP	0.0811
RRIRSRPPRLPRPRPRPMFFPRP	-0.274
RRIRQRPPRLPRPRPRPEFAPRP	0.482
RRIRLRPPRLPRPRPRPDHRPRP	-0.041
RRIRMRPPRLPRPRPRPPFRPRP	0.693
RRIRQRPPRLPRPRPRPDVMPRP	0.0589
RRIRDRPPRLPRPRPRPGMQPRP	0.165
RRIRNRPPRLPRPRPRPRSIPRP	-0.288
RRIRPRPPRLPRPRPRPGRNPRP	-0.0548
RRIRCRPPRLPRPRPRPCEIPRP	0.0656
RRIRKRPPRLPRPRPRPETFPRP	-0.00962
RRIRIRPPRLPRPRPRPERIPRP	0.0552
RRIRTRPPRLPRPRPRPKSFPRP	0.0134
RRIRIRPPRLPRPRPRPDWLPRP	-0.166
RRIRERPPRLPRPRPRPGTGPRP	0.229
RRIRTRPPRLPRPRPRPPPYPRP	-0.000222
RRIRIRPPRLPRPRPRPSAHPRP	-0.202
RRIRPRPPRLPRPRPRPENSPRP	-0.0155
RRIRERPPRLPRPRPRPNGHPRP	0.0479
RRIRPRPPRLPRPRPRPAFEPRP	0.139
RRIRMRPPRLPRPRPRPMSVPRP	-0.00306

Sequence	shrunken log2 fold change
RRIRARPPRLPRPRPRPMGNPRP	-0.101
RRIRLRPPRLPRPRPRPDGKPRP	-0.0351
RRIRSRPPRLPRPRPRPHALPRP	0.0303
RRIRHRPPRLPRPRPRPGCFPRP	-0.181
RRIRFRPPRLPRPRPRPWFQPRP	-0.285
RRIRHRPPRLPRPRPRPETPPRP	0.561
RRIRLRPPRLPRPRPRPWFHPRP	-0.352
RRIRDRPPRLPRPRPRPGAVPRP	0.614
RRIRDRPPRLPRPRPRPNHLPRP	0.000895
RRIRWRPPRLPRPRPRPYPMPRP	-0.128
RRIRYRPPRLPRPRPRPEPFPRP	0.0898
RRIRKRPPRLPRPRPRPQCPPRP	-0.000549
RRIRQRPPRLPRPRPRPTHVPRP	-0.0938
RRIRMRPPRLPRPRPRPPTCPRP	0.183
RRIRHRPPRLPRPRPRPHYQPRP	0.0121
RRIRGRPPRLPRPRPRPMDQPRP	0.489
RRIRMRPPRLPRPRPRPVVRPRP	0.0837
RRIRDRPPRLPRPRPRPQGAPRP	0.244
RRIRWRPPRLPRPRPRPYTCPRP	-1.7
RRIRGRPPRLPRPRPRPFEDPRP	0.392
RRIRLRPPRLPRPRPRPWTAPRP	0.0908
RRIRLRPPRLPRPRPRPPYPPRP	-0.0316
RRIRPRPPRLPRPRPRPKRPPRP	0.465
RRIRGRPPRLPRPRPRPIIPPRP	-0.212
RRIRCRPPRLPRPRPRPESCPRP	-0.0297

Sequence	shrunken log2 fold change
RRIRERPPRLPRPRPRPPSSPRP	0.0527
RRIRIRPPRLPRPRPRPCNCPRP	0.174
RRIRGRPPRLPRPRPRPRVDPRP	1.57
RRIRHRPPRLPRPRPRPKNGPRP	-0.0347
RRIRIRPPRLPRPRPRPSVCPRP	-0.294
RRIRRRPPRLPRPRPRPNKTPRP	-0.00203
RRIRRRPPRLPRPRPRPTFGPRP	0.337
RRIRKRPPRLPRPRPRPNTNPRP	-0.0445
RRIRPRPPRLPRPRPRPELQPRP	0.345
RRIRMRPPRLPRPRPRPRKFPRP	0.247
RRIRSRPPRLPRPRPRPPHCPRP	0.105
RRIRIRPPRLPRPRPRPCRKPRP	-0.0747
RRIRGRPPRLPRPRPRPEQTPRP	0.388
RRIRYRPPRLPRPRPRPTDGPRP	-0.0848
RRIRMRPPRLPRPRPRPSFGPRP	0.0121
RRIRYRPPRLPRPRPRPTFPPRP	-0.279
RRIRFRPPRLPRPRPRPWISPRP	-0.456
RRIRERPPRLPRPRPRPPTFPRP	-0.767
RRIRDRPPRLPRPRPRPNREPRP	-0.00168
RRIRCRPPRLPRPRPRPRTQPRP	0.323
RRIRHRPPRLPRPRPRPVSMPRP	-0.0784
RRIRARPPRLPRPRPRPLKEPRP	0.218
RRIRGRPPRLPRPRPRPWDSPRP	-0.479
RRIRRRPPRLPRPRPRPRAGPRP	0.638
RRIRGRPPRLPRPRPRPGEMPRP	1.31

Sequence	shrunken log2 fold change
RRIRTRPPRLPRPRPRPADMPRP	-0.431
RRIRYRPPRLPRPRPRPQIAPRP	-0.242
RRIRSRPPRLPRPRPRPWPKPRP	0.228
RRIRIRPPRLPRPRPRPAKMPRP	-0.101
RRIRYRPPRLPRPRPRPWRHPRP	-0.116
RRIRQRPPRLPRPRPRPSYGPRP	-0.188
RRIRLRPPRLPRPRPRPSRHPRP	-0.415
RRIRQRPPRLPRPRPRPPMNPRP	-0.299
RRIRQRPPRLPRPRPRPFHDPRP	-0.336
RRIRKRPPRLPRPRPRPTNMPRP	-0.155
RRIRARPPRLPRPRPRPYGNPRP	-0.0109
RRIRKRPPRLPRPRPRPGSAPRP	0.843
RRIRERPPRLPRPRPRPTMWPRP	-0.421
RRIRNRPPRLPRPRPRPSCRPRP	0.0168
RRIRNRPPRLPRPRPRPYYEPRP	-0.793
RRIRSRPPRLPRPRPRPIAEPRP	-0.0272
RRIRARPPRLPRPRPRPNSWPRP	0.422
RRIRQRPPRLPRPRPRPTENPRP	0.0631
RRIRKRPPRLPRPRPRPWVSPRP	0.345
RRIRKRPPRLPRPRPRPPSVPRP	0.282
RRIRVRPPRLPRPRPRPGCEPRP	2.45
RRIRVRPPRLPRPRPRPSIWPRP	-0.205
RRIRKRPPRLPRPRPRPGHKPRP	0.193
RRIRWRPPRLPRPRPRPLQEPRP	0.36
RRIRPRPPRLPRPRPRPACMPRP	0.165

Sequence	shrunken log2 fold change
RRIRTRPPRLPRPRPRPGICPRP	-0.0258
RRIRMRPPRLPRPRPRPFKAPRP	-0.114
RRIRYRPPRLPRPRPRPTGVPRP	-0.0415
RRIRWRPPRLPRPRPRPWQVPRP	0.172
RRIRFRPPRLPRPRPRPTENPRP	-0.115
RRIRHRPPRLPRPRPRPEYMPRP	-0.05
RRIRQRPPRLPRPRPRPVDWPRP	0.39
RRIRPRPPRLPRPRPRPRALPRP	0.388
RRIRFRPPRLPRPRPRPPCLPRP	-0.0576
RRIRWRPPRLPRPRPRPGEQPRP	0.0722
RRIRSRPPRLPRPRPRPMVFPRP	0.104
RRIRLRPPRLPRPRPRPVPYPRP	-0.2
RRIRERPPRLPRPRPRPDNQPRP	-0.459
RRIRHRPPRLPRPRPRPSQSPRP	-0.22
RRIRNRPPRLPRPRPRPQWGPRP	-0.0138
RRIRVRPPRLPRPRPRPQTNPRP	-0.0562
RRIRARPPRLPRPRPRPSLAPRP	0.54
RRIRGRPPRLPRPRPRPEVLPRP	1.83
RRIRGRPPRLPRPRPRPDMCPRP	1.27
RRIRERPPRLPRPRPRPSRQPRP	-0.214
RRIRNRPPRLPRPRPRPVPHPRP	-0.0692
RRIRSRPPRLPRPRPRPIDYPRP	-0.0581
RRIRLRPPRLPRPRPRPNHRPRP	0.00288
RRIRHRPPRLPRPRPRPMHRPRP	0.00128
RRIRWRPPRLPRPRPRPPGCPRP	0.975
